Data on 57 substances can be found in patent US10047131B2, “Peptides and combination of peptides for use in immunotherapy against ovarian cancer and other cancers” (immatics biotechnologies GmbH, priority 2015, dated 2018).

This assay concerns the target HLA-A*02:01 (Homo sapiens, UniProt P04439, D140Y/D185E/D98H/E176V/E277Q/G131W/G231S/I119V/I121R/I166T/I218V/L300P/L318F/N151K/N90K/P208A/P217A/Q86G/Q94H/R138H/R169H/T345S). The assay can be described thus: MHC binding assay (UV-ligand exchange, ELISA of exchange yield). Particulars: binding to HLA-A*02:01, UV-ligand exchange. The source says:
Candidate peptides for T cell based therapies according to the present invention were further tested for their MHC binding capacity (affinity). The individual peptide-MHC complexes were produced by UV-ligand exchange, where a UV-sensitive peptide is cleaved upon UV-irradiation, and exchanged with the peptide of interest as analyzed. Only peptide candidates that can effectively bind and stabilize the peptide-receptive MHC molecules prevent dissociation of the MHC complexes. To determine the yield of the exchange reaction, an ELISA was performed based on the detection of the light chain (p2m) of stabilized MHC complexes. The assay was performed as generally described in Rodenko et al. (Rodenko et al., 2006).
96 well MAXISorp plates (NUNC) were coated over night with 2 μg/ml streptavidin in PBS at room temperature, washed 4× and blocked for 1 h at 37° C. in 2% BSA containing blocking buffer. […] Peptide-MHC monomers of the UV-exchange reaction were diluted 100 fold in blocking buffer. Samples were incubated for 1h at 37° C., washed four times, incubated with 2 μg/ml HRP conjugated anti-β2m for 1h at 37° C., washed again and detected with TMB solution that is stopped with […]. Absorption was measured at 450 nm. Candidate peptides that show a high exchange yield (preferably higher than 50%, most preferred higher than 75%) are generally preferred for a generation and production of antibodies or fragments thereof, and/or T cell receptors or fragments thereof, as they show sufficient avidity to the MHC molecules and prevent dissociation of the MHC complexes.
“49 (YLPAVFEEV; listed as Homo sapiens) [compound 49]”: the “Peptide exchange (MHC class I binding score, peptide exchange yield)” value (shortened to “Peptide exchange”) is ““+++” (≥50 = +++)”. For the substance “50 (SLSELEALM; listed as Homo sapiens) [compound 50]”, the “Peptide exchange” value is ““+++” (≥50 = +++)”. On to “51 (LLPDLEFYV; listed as Homo sapiens) [compound 51]”, for which the “Peptide exchange” value is reported as ““++++” (≥75% = ++++)”. The entry for “52 (FLLAHGLGFLL; listed as Homo sapiens) [compound 52]” is ““++++” (≥75% = ++++)”. As for “53 (KMIETDILQKV; listed as Homo sapiens) [compound 53]”, the “Peptide exchange” value is reported as ““++++” (≥75% = ++++)”.

Turning to “54 (SLLEQGKEPWMV; listed as Homo sapiens) [compound 54]”, the “Peptide exchange” value is reported as ““+++” (≥50 = +++)”. “55 (SLLDLETLSL; listed as Homo sapiens) [compound 55]”: the “Peptide exchange” value is listed as ““++++” (≥75% = ++++)”. For “56 (KLYEGIPVLL; listed as Homo sapiens) [compound 56]”, the “Peptide exchange” value was ““++++” (≥75% = ++++)”. “57 (TLAELQPPVQL; listed as Homo sapiens) [compound 57]”: the “Peptide exchange” value was ““+++” (≥50 = +++)”.

Take “59 (IMEDIILTL; listed as Homo sapiens) [compound 59]”: the “Peptide exchange” value was ““+++” (≥50 = +++)”.

For the substance “60 (SLTIDGIYYV; listed as Homo sapiens) [compound 60]”, the “Peptide exchange” value is recorded as ““++++” (≥75% = ++++)”. To “61 (FLQGYQLHL; listed as Homo sapiens) [compound 61]” belongs ““++++” (≥75% = ++++)”. Consider “62 (VLLDVSAGQLLM; listed as Homo sapiens) [compound 62]”, for which the “Peptide exchange” value is listed as ““++++” (≥75% = ++++)”.

On to “63 (YLLPSGGSVTL; listed as Homo sapiens) [compound 63]”, for which the “Peptide exchange” value is on record as ““++” (≥20% = ++)”. Regarding “64 (YAAPGGLIGV; listed as Homo sapiens) [compound 64]”, the “Peptide exchange” value was ““++” (≥20% = ++)”. Take “66 (FLDENIGGVAV; listed as Homo sapiens) [compound 66]”: the “Peptide exchange” value is ““+++” (≥50 = +++)”. As for “67 (TLLAEALVTV; listed as Homo sapiens) [compound 67]”, the “Peptide exchange” value is reported as ““+++” (≥50 = +++)”. As for “68 (SLMELPRGLFL; listed as Homo sapiens) [compound 68]”, the “Peptide exchange” value is recorded as ““++++” (≥75% = ++++)”. The entry for “69 (FQLDPSSGVLVTV; listed as Homo sapiens) [compound 69]” is ““+++” (≥50 = +++)”; for “70 (GLLDYPVGV; listed as Homo sapiens) [compound 70]” it is ““+++” (≥50 = +++)”; for “71 (GILARIASV; listed as Homo sapiens) [compound 71]” it is ““+++” (≥50 = +++)”. Regarding “72 (SLLELDGINL; listed as Homo sapiens) [compound 72]”, the “Peptide exchange” value is recorded as ““+++” (≥50 = +++)”. To “73 (NIFDLQIYV; listed as Homo sapiens) [compound 73]” belongs ““+++” (≥50 = +++)”. With “74 (ALLDPEVLSIFV; listed as Homo sapiens) [compound 74]”, the “Peptide exchange” value was ““+++” (≥50 = +++)”. Take “75 (GLLEVMVNL; listed as Homo sapiens) [compound 75]”: the “Peptide exchange” value is recorded as ““+++” (≥50 = +++)”.

On to “76 (ILIDSIYKV; listed as Homo sapiens) [compound 76]”, for which the “Peptide exchange” value is ““+++” (≥50 = +++)”. The entry for “77 (ILVEADGAWVV; listed as Homo sapiens) [compound 77]” is ““++++” (≥75% = ++++)”; for “78 (SLFSSLEPQIQPV; listed as Homo sapiens) [compound 78]” it is ““+++” (≥50 = +++)”.

“79 (SLFIGEKAVLL; listed as Homo sapiens) [compound 79]”: the “Peptide exchange” value is listed as ““+++” (≥50 = +++)”. Consider “80 (FLYDNLVESL; listed as Homo sapiens) [compound 80]”, for which the “Peptide exchange” value is on record as ““++” (≥20% = ++)”. For the substance “81 (FLFSQLQYL; listed as Homo sapiens) [compound 81]”, the “Peptide exchange” value is ““++” (≥20% = ++)”. Take “82 (FLSSVTYNL; listed as Homo sapiens) [compound 82]”: the “Peptide exchange” value is given as ““+++” (≥50 = +++)”. As for “83 (ILAPTVMMI; listed as Homo sapiens) [compound 83]”, the “Peptide exchange” value was ““+++” (≥50 = +++)”.

As for “84 (VTFGEKLLGV; listed as Homo sapiens) [compound 84]”, the “Peptide exchange” value is ““++” (≥20% = ++)”. Turning to “85 (KMSELRVTL; listed as Homo sapiens) [compound 85]”, the “Peptide exchange” value is recorded as ““+++” (≥50 = +++)”.

For “86 (NLIGKIENV; listed as Homo sapiens) [compound 86]”, the “Peptide exchange” value is given as ““+++” (≥50 = +++)”. As for “87 (ALPEAPAPLLPHIT; listed as Homo sapiens) [compound 87]”, the “Peptide exchange” value is recorded as ““++” (≥20% = ++)”. For “88 (FLLVGDLMAV; listed as Homo sapiens) [compound 88]”, the “Peptide exchange” value was ““+++” (≥50 = +++)”. “89 (YILPTETIYV; listed as Homo sapiens) [compound 89]”: the “Peptide exchange” value is given as ““++++” (≥75% = ++++)”. Consider “90 (TLLQIIETV; listed as Homo sapiens) [compound 90]”, for which the “Peptide exchange” value is ““+++” (≥50 = +++)”. “91 (IMQDFPAEIFL; listed as Homo sapiens) [compound 91]”: the “Peptide exchange” value is ““++++” (≥75% = ++++)”. The entry for “92 (YLIPFTGIVGL; listed as Homo sapiens) [compound 92]” is ““++” (≥20% = ++)”; for “93 (LLQAIKLYL; listed as Homo sapiens) [compound 93]” it is ““++” (≥20% = ++)”.

“94 (YLIDIKTIAI; listed as Homo sapiens) [compound 94]”: the “Peptide exchange” value was ““++” (≥20% = ++)”. For the substance “95 (SVIPQIQKV; listed as Homo sapiens) [compound 95]”, the “Peptide exchange” value is given as ““+++” (≥50 = +++)”. Regarding “96 (YIFTDNPAAV; listed as Homo sapiens) [compound 96]”, the “Peptide exchange” value is on record as ““+++” (≥50 = +++)”. For the substance “97 (SLINGSFLV; listed as Homo sapiens) [compound 97]”, the “Peptide exchange” value is reported as ““+++” (≥50 = +++)”. For the substance “98 (LIIDQADIYL; listed as Homo sapiens) [compound 98]”, the “Peptide exchange” value was ““+++” (≥50 = +++)”.

For “99 (ALVSKGLATV; listed as Homo sapiens) [compound 99]”, the “Peptide exchange” value is ““++” (≥20% = ++)”. As for “100 (YLLSTNAQL; listed as Homo sapiens) [compound 100]”, the “Peptide exchange” value is recorded as ““++++” (≥75% = ++++)”. As for “101 (ILVGGGALATV; listed as Homo sapiens) [compound 101]”, the “Peptide exchange” value is ““+++” (≥50 = +++)”. Regarding “102 (YLFESEGLVL; listed as Homo sapiens) [compound 102]”, the “Peptide exchange” value is listed as ““+++” (≥50 = +++)”.

As for “103 (TLAEEVVAL; listed as Homo sapiens) [compound 103]”, the “Peptide exchange” value is ““+++” (≥50 = +++)”.

“104 (STMEQNFLL; listed as Homo sapiens) [compound 104]”: the “Peptide exchange” value is ““++++” (≥75% = ++++)”.

On to “106 (LLYDAVHIVSV; listed as Homo sapiens) [compound 106]”, for which the “Peptide exchange” value is given as ““+++” (≥50 = +++)”. Regarding “107 (FLQPVDDTQHL; listed as Homo sapiens) [compound 107]”, the “Peptide exchange” value is on record as ““+++” (≥50 = +++)”. As to “108 (ALFPGVALLLA; listed as Homo sapiens) [compound 108]”, the “Peptide exchange” value is recorded as ““++++” (≥75% = ++++)”.
